Data set [1] concerns the target T1, Nip7p (yeast) (Saccharomyces cerevisiae, UniProt Q08962 1-181).
T1 sequence: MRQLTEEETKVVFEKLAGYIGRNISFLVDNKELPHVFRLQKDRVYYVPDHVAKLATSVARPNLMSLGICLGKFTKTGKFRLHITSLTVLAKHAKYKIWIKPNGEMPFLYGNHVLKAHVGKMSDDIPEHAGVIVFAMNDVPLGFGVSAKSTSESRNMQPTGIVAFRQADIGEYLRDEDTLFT
In words: EMSA.

The target of data set [2] is T2, NIP7 (human, recombinant) (Homo sapiens, UniProt Q9Y221 1-180).
T2 sequence: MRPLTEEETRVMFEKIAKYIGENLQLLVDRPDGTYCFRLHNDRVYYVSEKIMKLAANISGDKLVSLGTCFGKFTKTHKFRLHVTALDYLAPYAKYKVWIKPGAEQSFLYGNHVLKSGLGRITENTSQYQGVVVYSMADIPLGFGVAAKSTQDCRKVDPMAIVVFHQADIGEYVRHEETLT
In words: EMSA.

In the case of UUUUUUUUUUUUUUUUUUUU (ssRNA) [poly-U(20)], the binding result in data set [1] is on record as “binds”.

On to UUAUUAUUUAUUUAUUAUUUA (ssRNA) [poly-AU(21)], for which the binding result in data set [2] is given as “binds”.

Values taken from PMC3025556.
